Measured values as given in patent publication US20230277633.

Assays:
[1] = system: human IVIg (an intravenous human immunoglobulin)
[2] = biological target: human IVIg (an intravenous human immunoglobulin); remark: listed apart in the source

Molecule | enzymatic digestion of human IVIg in vitro, SDS-PAGE (10 ug IVIg per 1 Unit IdeZ, 37 C, 1 h) [1] | enzymatic digestion of human IVIg in vitro, SDS-PAGE (enzyme:IVIg 1:200 by mass, 37 C, 1 h) [2]
protease IdeZ (Genovis) | all the three proteases can effectively cleave human IVIg | 
protease IdeS (protein) DSFSANQEIRYSEVTPYHVTSVWTKGVTPPANFTQGEDVFHAPYVANQGWYDITKTFNGKDDLLCGAATAGNMLHWWFDQNKDQIKRYLEEHPEKQKINFNGEQMFDVKEAIDTKNHQLDSKLFEYFKEKAFPYLSTKHLGVFPDHVIDMFINGYRLSLTNHGPTPVKEGSKDPRGGIFDAVFTRGDQSKLLTSRHDFKEKNLKEISDLIKKELTEGKALGLSHTYANVRINHVINLWGADFDSNGNLKAIYVTDSDSNASIGMKKYFVGVNSAGKVAISAKEIKEDNIGAQVLGLFTLSTGQDSWNQTNHHHHHHSSG |  | all the three proteases can effectively cleave human IVIg
protease IdeE (protein) DDYQRNATEAYAKEVPHQITSVWTKGVTPLTPEQFRYNNEDVIHAPYLAHQGWYDITKAFDGKDNLLCGAATAGNMLHWWFDQNKTEIEAYLSKHPEKQKIIFNNQELFDLKAAIDTKDSQTNSQLFNYFRDKAFPNLSARQLGVMPDLVLDMFINGYYLNVFKTQSTDVNRPYQDKDKRGGIFDAVFTRGDQTTLLTARHDLKNKGLNDISTIIKQELTEGRALALSHTYANVSISHVINLWGADFNAEGNLEAIYVTDSDANASIGMKKYFVGINAHRHVAISAKKIEGENIGAQVLGLFTLSSGKDIWQKLSHHHHHH |  | all the three proteases can effectively cleave human IVIg
